Molecular target: interleukin-6 receptor (IL-6R) (human) (UniProt P08887)
Experiment: cell-based or functional assay

Sequence of interleukin-6 receptor (IL-6R) (human) (P08887 20-468 limits assumed): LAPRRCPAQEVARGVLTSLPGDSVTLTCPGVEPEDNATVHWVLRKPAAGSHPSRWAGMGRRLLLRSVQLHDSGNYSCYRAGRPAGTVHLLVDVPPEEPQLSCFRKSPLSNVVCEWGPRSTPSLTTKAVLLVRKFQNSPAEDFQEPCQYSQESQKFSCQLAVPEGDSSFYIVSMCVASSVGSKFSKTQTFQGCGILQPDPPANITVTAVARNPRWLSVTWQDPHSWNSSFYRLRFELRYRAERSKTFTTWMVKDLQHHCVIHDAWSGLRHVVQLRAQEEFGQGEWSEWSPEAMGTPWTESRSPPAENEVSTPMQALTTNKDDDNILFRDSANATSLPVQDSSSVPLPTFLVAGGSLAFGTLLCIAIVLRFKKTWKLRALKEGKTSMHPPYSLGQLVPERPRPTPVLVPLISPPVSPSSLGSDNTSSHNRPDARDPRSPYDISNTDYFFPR

median peak levels of serum IL-6 (day 3-5): 10 fold
Substance: tocilizumab (antibody)

Source: patent US20220016165A1
